Assay [1] addresses T1, human interleukin 12 (recombinant human IL-12, p70 heterodimer) (human, UniProt P29459 23-219; P29460 23-328).
T1 construct: p35 and p40 linked by a disulfide bridge; also called hIL-12; rh IL-12
T1 sequence (looked up) 1: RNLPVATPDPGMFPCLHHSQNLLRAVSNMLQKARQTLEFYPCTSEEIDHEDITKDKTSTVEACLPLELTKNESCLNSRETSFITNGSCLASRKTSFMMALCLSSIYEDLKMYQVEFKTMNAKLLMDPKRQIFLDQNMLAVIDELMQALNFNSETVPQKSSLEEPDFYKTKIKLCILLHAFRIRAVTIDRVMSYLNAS
T1 sequence (looked up) 2: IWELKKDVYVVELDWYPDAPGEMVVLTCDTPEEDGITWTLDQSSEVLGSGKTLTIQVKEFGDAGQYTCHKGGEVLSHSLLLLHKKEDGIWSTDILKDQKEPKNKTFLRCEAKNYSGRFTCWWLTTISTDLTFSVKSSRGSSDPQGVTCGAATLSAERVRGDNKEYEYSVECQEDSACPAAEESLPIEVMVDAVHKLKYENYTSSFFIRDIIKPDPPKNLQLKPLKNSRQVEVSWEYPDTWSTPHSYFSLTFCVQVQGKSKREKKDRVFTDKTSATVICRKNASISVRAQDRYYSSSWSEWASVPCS
The experiment in a line: RB assay: inhibition of IL-12 binding to its receptor.

Assay [2] concerns the target T1, human interleukin 12 (recombinant human …). As to the kind of experiment: SPR (BIAcore), off-rate from human IL-12. A general note: Surface plasmon resonance follows binding to a sensor surface in real time, without labels.
Assay [3] shares this target. The experiment in a line: cell-based or functional assay.

B1: Y61-L94Y IgG (antibody, V domains shown)
VH: QVQLVQSGGGVVQPGRSLRLSCAASGFTFSSYGMHWVRQAPGKGLEWVAFIRYDGSNKYYADSVKGRFTISRDNSKNTLYLQMKSLRAEDTAVYYCKTHGSHDNWGQGTMVTVSS
VL: QSVLTQPPSVSGAPGQRVTISCSGSRSNIGSNTVKWYQQLPGTAPKLLIYGNDQRPSGVPDRFSGSKSGTSASLAITGLQAEDEADYYCQSYDRYTHPALLFGTGTKVTVL
For orientation: IC50 means the concentration that inhibits the measured activity by half. For orientation: koff means a measure of how fast the partners let go of each other. For B1, in assay [1], the IC50 is 0.06 nM. Moreover, in assay [2], the dissociation rate constant (koff) was 0.000127 s⁻¹. For the same molecule, in assay [3], the “IFN gamma IC50” value turned out to be 0.04 nM and the “PHA assay IC50” value came to 0.05 nM.

These data come from patent US20120219562A1 (AbbVie / Abbott, published 2012).
